Patent US20220235103A1 (Molecular Partners, published 2022)
Like-named read-outs stand apart in the source and are kept apart here.

How the values were obtained:
[1] = molecular target: T1, SARS-CoV-2 (COVID-19) S protein RBD (cat. SPD-C5255, lot. BV3539b-203FF1-203K) (SARS-CoV-2, UniProt P0DTC2 319-537)
bio-S ecto Sino [2] = molecular target: T2, bio-S ecto Sino (SARS-CoV-2, UniProt P0DTC2 16-1213)
bio-S ecto Sino [3] = molecular target: T2, bio-S ecto Sino; remark: listed apart in the source
bio-RBD Fc Acro = bio-RBD Fc Acro (SARS-CoV-2); assay: SPR, single trace
bio-S1 Acro [4] = molecular target: T3, bio-S1 Acro (SARS-CoV-2, UniProt P0DTC2 16-685); assay: SPR, single trace
S ecto U [5] = molecular target: T4, S ecto U (SARS-CoV-2, UniProt P0DTC2 16-1213); assay: SPR, ProteOn XPR36, fitted curves (FIG. 9c)
T4 construct: also called ecto-domain of the spike protein

S ecto U [6] = molecular target: T4, S ecto U
bio-S1 Acro [7] = molecular target: T3, bio-S1 Acro; assay: SPR
[8] = molecular target: T1, SARS-CoV-2 (COVID-19) S protein RBD …; remark: listed apart in the source
bio-S ecto Sino [9] = molecular target: T2, bio-S ecto Sino; assay: single trace
bio-S ecto Sino [10] = molecular target: T2, bio-S ecto Sino; remark: listed apart in the source

B1: ALE030 (designed binder)
chain: MRGSHHHHHHGSDLGKKLLEAARAGQDDEVRELLKAGADVNAKDYFSHTPLHLAARNGHLKIVEVLLKAGADVNAKDFAGKTPLHLAANEGHLEIVEVLLKAGADVNAQDIFGKTPADIAADAGHEDIAEVLQKAAGSPTPTPTTPTPTPTTPTPTPTGSDLGKKLLEAARAGQDDEVRELLKAGADVNAKDYFSHTPLHLAARNGHLKIVEVLLKAGADVNAKDFAGKTPLHLAANEGHLEIVEVLLKAGADVNAQDIFGKTPADIAADAGHEDIAEVLQKAAGSPTPTPTTPTPTPTTPTPTPTGSDLGKKLLQAARAGQLDEVRELLKAGADVNAKDREGITPLHLAAQHGHLEIVEVLLKAGADVNAKDVWGRTPLHLAAWQGHLEIVEVLLKAGADVNAKDLAGATPLHVAALYGHLEIVEVLLKAGADVNAQDKSGKTPADLAARAGHQDIAEVLQKAAGSPTPTPTTPTPTPTTPTPTPTGSDLGNKLLDAAWVGQDDEVRILLAAGADVNAKDWQGETPLHLAATKGHLEIVEVLLKAGADVNAKDVVGYTPLHVAASQGHLEIVEVLLKAGADVNAQDVHGYTPADLAAQAGHEDIAEVLQKAAGSPTPTPTTPTPTPTTPTPTPTGSDLGKKLLQAARAGQLDEVRELLKAGADVNAKDREGKTPLHVAAQEGHLEIVEVLLKAGADVNAKDVWGRTPLHLAAWIGHLEIVEVLLKAGADVNAKDVSGATPLHAAALHGHLEIVEVLLNAGADVNAQDKSGKTPADLAARAGHQDIAEVLQKAA
Kd [1]: 0.000142 nM | koff [1]: 1.15e-07 s⁻¹ | kon [1]: 810000 M⁻¹ s⁻¹

B2: vS07_19G10 (designed binder)
chain: MRGSHHHHHHGSDLGNKLLDAAWVGQDDEVRILLAAGADVNAKDWQGETPLHLAATKGHLEIVEVLLKAGADVNAKDVVGYTPLHVAASQGHLEIVEVLLKAGADVNAQDVHGYTPADLAAQAGHEDIAEVLQKAA
notes: also called R2a
koff (bio-S ecto Sino [2]): 0.000179 s⁻¹ | kon (bio-S ecto Sino [2]): 693000 M⁻¹ s⁻¹ | Kd (bio-S ecto Sino [3]): 0.26 nM | binding result (bio-RBD Fc Acro): binds

B3: vS07_08F10 (designed binder)
chain: MRGSHHHHHHGSDLGHKLLLAAQAGQDDEVRILLAAGADVNAKDVFGQTPLHVAAVAGHLEIVEVLLKAGADVNAKDSIGYTPLHHAARVGHLEIVEVLLKAGADVNAQDWIGITPADLAAFEGHEDIAEVLQKAA
notes: also called S1a
Kd (bio-S1 Acro [4]): 20 nM | Kd (S ecto U [5]): 1.2 nM | koff (S ecto U [6]): 0.00086 s⁻¹ | kon (S ecto U [6]): 695000 M⁻¹ s⁻¹

B4: vS07_08F10v27 (designed binder)
chain: MRGSHHHHHHGSDLGKKLLLAARAGQLDEVRILLKAGADVNAKDVFGQTPLHVAAVAGHLEIVEVLLKAGADVNAKDSIGYTPLHHAARVGHLEIVEVLLKAGADVNAKDWIGITPADLAAFEGHQDIAEVLQKAA
binding result (bio-S1 Acro [7]): binds

B5: vS07_26C03 (designed binder)
chain: MRGSHHHHHHGSDLGWKLLWAAQVGQDDEVRILLAAGADVNAKDDLGWTPLHIAAWVGHLEIVEVLLKAGADVNAKDFTGRTPLHHAATEGHLEIVKVLLKAGADVNAQDDVGHTPADLAALWGHEDIAEVLQKAA
notes: also called RN2
Kd (bio-S ecto Sino [3]): 23 nM | binding result (bio-RBD Fc Acro): binds

B6: ALE033 (designed binder)
chain: MRGSHHHHHHGSDLGKKLLEAARAGQDDEVRELLKAGADVNAKDYFSHTPLHLAARNGHLKIVEVLLKAGADVNAKDFAGKTPLHLAANEGHLEIVEVLLKAGADVNAQDIFGKTPADIAADAGHEDIAEVLQKAAGSPTPTPTTPTPTPTTPTPTPTGSDLGKKLLEAARAGQDDEVRELLKAGADVNAKDYFSHTPLHLAARNGHLKIVEVLLKAGADVNAKDFAGKTPLHLAANEGHLEIVEVLLKAGADVNAQDIFGKTPADIAADAGHEDIAEVLQKAAGSPTPTPTTPTPTPTTPTPTPTGSDLGKKLLQAARAGQLDEVRELLKAGADVNAKDREGITPLHLAAQHGHLEIVEVLLKAGADVNAKDVWGRTPLHLAAWQGHLEIVEVLLKAGADVNAKDLAGATPLHVAALYGHLEIVEVLLKAGADVNAQDKSGKTPADLAARAGHQDIAEVLQKAAGSPTPTPTTPTPTPTTPTPTPTGSDLGKKLLQAARAGQLDEVRELLKAGADVNAKDREGKTPLHVAAQEGHLEIVEVLLKAGADVNAKDVWGRTPLHLAAWIGHLEIVEVLLKAGADVNAKDVSGATPLHAAALHGHLEIVEVLLNAGADVNAQDKSGKTPADLAARAGHQDIAEVLQKAAGSPTPTPTTPTPTPTTPTPTPTGSDLGKKLLQAARAGQLDEVRELLKAGADVNAKDREGITPLHLAAQHGHLEIVEVLLKAGADVNAKDVWGRTPLHLAAWQGHLEIVEVLLKAGADVNAKDLAGATPLHVAALYGHLEIVEVLLKAGADVNAQDKSGKTPADLAARAGHQDIAEVLQKAA
kon [8]: 1.54e+06 M⁻¹ s⁻¹

B7: vS07_14G03 (designed binder)
chain: MRGSHHHHHHGSDLGQKLLHAAQYGQDDEVRILLAAGADVNAKDKQGNTPLHIAAFHGHLEIVEVLLKAGADVNAKDQWGLTPLHLAAAWGHLEIVEVLLKAGADVNAQDNYGQTPADLAAESGHEDIAEVLQKAA
notes: also called S2a
Kd (S ecto U [5]): 0.79 nM | koff (S ecto U [6]): 0.00352 s⁻¹ | kon (S ecto U [6]): 4.49e+06 M⁻¹ s⁻¹

B8: vS07_07F02 (designed binder)
chain: MRGSHHHHHHGSDLGLKLLTAAKQGQDDEVRILLAAGADVNAKDYRGLTPLHYAAAIGHLEIVEVLLKAGADVNAKDQYGATPLHVAAYIGHLEIVEVLLKAGADVNAQDFSGSTPADLAAEEGHEDIAEVLQKAA
notes: also called RN1
binding result (bio-RBD Fc Acro): binds | Kd (bio-S ecto Sino [9]): 14 nM

B9: vS07_23E04 (designed binder)
chain: MRGSHHHHHHGSDLGKKLLQAARAGQLDEVRELLKAGADVNAKDQEGITPLHVAAHQGHLEIVEVLLKAGADVNAKDVWGRTPLHLAAWRGHLEIVEVLLKAGADVNAKDHAGATPLHAAALSGHLEIVEVLLKAGADVNAQDKSGKTPADLAARAGHQDIAEVLQKAA
notes: also called R3c
Kd (bio-S ecto Sino [3]): 0.09 nM | binding result (bio-RBD Fc Acro): binds | koff (bio-S ecto Sino [10]): 0.000234 s⁻¹ | kon (bio-S ecto Sino [10]): 2.59e+06 M⁻¹ s⁻¹

B10: vS07_06F12 (designed binder)
chain: MRGSHHHHHHGSDLGKKLLQAARAGQLDEVRELLKAGADVNAKDREGWTPLHLAAHQGHLEIVEVLLKAGADVNAKDVFGRTPLHLAAWVGHLEIVEVLLKAGADVNAKDVSGATPLHPAAIYGHLEIVEVLLKAGADVNAQDKSGKTPADLAARAGHQDIAEVLQKAA
notes: also called R1a
koff (bio-S ecto Sino [2]): 0.000243 s⁻¹ | kon (bio-S ecto Sino [2]): 963000 M⁻¹ s⁻¹ | Kd (bio-S ecto Sino [3]): 0.25 nM | binding result (bio-RBD Fc Acro): binds

B11: vS07_12C06 (designed binder)
chain: MRGSHHHHHHGSDLGKKLLQAARAGQLDEVRELLKAGADVNAKDREGKTPLHVAAQEGHLEIVEVLLKAGADVNAKDVWGRTPLHLAAWIGHLEIVEVLLKAGADVNAKDVSGATPLHAAALHGHLEIVEVLLNAGADVNAQDKSGKTPADLAARAGHQDIAEVLQKAA
notes: also called R1b; Rb1
koff (bio-S ecto Sino [2]): 2.64e-05 s⁻¹ | kon (bio-S ecto Sino [2]): 1.26e+06 M⁻¹ s⁻¹ | Kd (bio-S ecto Sino [3]): 0.021 nM | binding result (bio-RBD Fc Acro): binds

B12: vS07_22E12 (designed binder)
chain: MRGSHHHHHHGSDLGKKLLQAARAGQLDEVRELLKAGADVNAKDKIGVTPLHIAAEVGHLEIVEVLLKAGADVNAKDVWGRTPLHLAAWSGHLEIVEVLVKAGADVNAKDIAGATPLHAAALFGHLEIVEVLLKVGADVNAQDKSGKTPADLAARAGHQDIAEVLQKAA
notes: also called R3a
Kd (bio-S ecto Sino [3]): 0.24 nM | binding result (bio-RBD Fc Acro): binds | koff (bio-S ecto Sino [10]): 0.000308 s⁻¹ | kon (bio-S ecto Sino [10]): 1.3e+06 M⁻¹ s⁻¹

B13: vS07_29B10 (designed binder)
chain: MRGSHHHHHHGSDLGKKLLQAARAGQLDEVRELLKAGADVNAKDREGITPLHLAAQHGHLEIVEVLLKAGADVNAKDVWGRTPLHLAAWQGHLEIVEVLLKAGADVNAKDLAGATPLHVAALYGHLEIVEVLLKAGADVNAQDKSGKTPADLAARAGHQDIAEVLQKAA
notes: also called R3b
Kd (bio-S ecto Sino [3]): 0.081 nM | binding result (bio-RBD Fc Acro): binds | koff (bio-S ecto Sino [10]): 0.000148 s⁻¹ | kon (bio-S ecto Sino [10]): 1.82e+06 M⁻¹ s⁻¹

B14: vS07_08F10v47 (designed binder)
chain: MRGSHHHHHHGSDLGKKLLLAARAGQLDEVRILLKAGADVNAKDVFGQTPLHTAAVAGHLEIVEVLLKAGADVNAKDKVGYTPLHLAAQSGHLEIVEVLLKAGADVNAKDVVGVTPADLAAFEGHQDIAEVLQKAA
binding result (bio-S1 Acro [7]): binds
